In paper PMC5621659:

How the values were obtained:
Assay in all cases: ELISA
[1] = molecular target: recombinant human insulin receptor (IR) (human) (UniProt P06213)
[2] = molecular target: C-terminal truncated apoE3 (aa1-186)
[3] = molecular target: C-terminal truncated apoE4 (aa1-186)

Substance	percent reduction of insulin-IR binding at 16 μg/ml [1]	percent reduction of binding against FL apoE [2]	percent reduction of binding against FL apoE [3]
recombinant human apoE4 (from UniProt P02649 19-317) (natural protein)	50%		
recombinant human insulin receptor (IR) (from UniProt P06213 28-1382)		50%	30%
